Experimental findings from patent US20240197902A1 are described below.

What all share (assay): cell-based or functional assay
Test [1] has as its target T1, GDF8 (UniProt O14793).
T1 sequence (looked up): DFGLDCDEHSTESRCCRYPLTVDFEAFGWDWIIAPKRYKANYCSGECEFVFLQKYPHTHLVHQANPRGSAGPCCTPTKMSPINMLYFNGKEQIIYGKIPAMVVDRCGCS

In test [2] the target is T2, BMP10 (UniProt O95393).
T2 sequence (looked up): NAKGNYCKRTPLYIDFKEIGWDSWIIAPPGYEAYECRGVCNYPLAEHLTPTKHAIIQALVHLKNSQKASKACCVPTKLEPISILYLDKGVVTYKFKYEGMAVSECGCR

In test [3] the target is T3, activin B (UniProt P09529).
T3 sequence (looked up): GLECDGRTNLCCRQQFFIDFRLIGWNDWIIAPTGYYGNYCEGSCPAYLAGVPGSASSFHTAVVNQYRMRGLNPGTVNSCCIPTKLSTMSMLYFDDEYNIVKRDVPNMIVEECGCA

The target in test [4] is T4, activin A (UniProt P08476).
T4 sequence (looked up): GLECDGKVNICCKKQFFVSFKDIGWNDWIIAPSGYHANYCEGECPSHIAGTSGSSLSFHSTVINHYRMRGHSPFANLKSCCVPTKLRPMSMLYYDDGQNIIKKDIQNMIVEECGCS

Test [5] addresses T5, BMP9 (UniProt Q9UK05).
T5 sequence (looked up): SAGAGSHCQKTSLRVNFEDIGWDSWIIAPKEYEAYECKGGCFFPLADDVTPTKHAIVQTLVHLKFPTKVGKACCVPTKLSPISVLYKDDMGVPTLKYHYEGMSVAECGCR

Test [6] deals with T6, GDF11 (UniProt O95390).
T6 sequence (looked up): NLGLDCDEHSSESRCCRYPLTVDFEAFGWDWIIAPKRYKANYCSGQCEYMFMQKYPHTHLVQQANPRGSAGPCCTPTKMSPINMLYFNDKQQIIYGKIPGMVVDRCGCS

Test [7] has as its target T4, activin A. The source holds these as a separate data set.
For test [8], the target named is T5, BMP9. This is another data set of the same source.
In test [9] the target is T6, GDF11. This is another data set of the same source.
Test [10] concerns the target activin A (UniProt P08476). The source holds these as a separate data set.
For test [11], the target named is BMP9 (UniProt Q9UK05). The source holds these as a separate data set.
In test [12] the target is GDF11 (UniProt O95390). The source holds these as a separate data set.
The target of test [13] is BMP10 (UniProt O95393). This is another data set of the same source.
In test [14] the target is activin B (UniProt P09529). This is another data set of the same source.
Test [15] concerns the target activin A (UniProt P08476). The source holds these as a separate data set.
The target of test [16] is GDF8 (UniProt O14793). The source holds these as a separate data set.
Test [17] has as its target GDF11 (UniProt O95390). This is another data set of the same source.

Read-outs that look alike come from different tables or passages of the source.

Sequence of ActRIIB(20-134)-G1Fc (Fc fusion) (chain): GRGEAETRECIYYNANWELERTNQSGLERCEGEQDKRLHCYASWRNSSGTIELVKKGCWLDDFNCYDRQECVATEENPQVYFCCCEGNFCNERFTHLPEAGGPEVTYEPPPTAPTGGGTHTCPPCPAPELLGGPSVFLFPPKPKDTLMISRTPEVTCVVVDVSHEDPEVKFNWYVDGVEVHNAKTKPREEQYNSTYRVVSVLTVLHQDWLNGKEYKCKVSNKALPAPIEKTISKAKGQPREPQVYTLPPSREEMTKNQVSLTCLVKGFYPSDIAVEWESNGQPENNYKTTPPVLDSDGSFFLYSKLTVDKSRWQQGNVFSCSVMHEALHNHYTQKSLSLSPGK

With ActRIIB(20-134)-G1Fc (Fc fusion), the IC50, A204 CAGA12 reporter gene assay with GDF8 [1] stood at 0.95 nM; with BMP10 [2] it was 0.036 nM; with activin B [3], 0.067 nM; with activin A [4] it was 0.05 nM; with BMP9 [5], 1.82 nM; with GDF11 [6] it was 0.12 nM. Also, the IC50, A204 CAGA12 reporter gene assay with activin A [7] amounted to 0.008 µg/mL; in the test with BMP9 [8], 0.031 µg/mL; with GDF11 [9], 0.009 µg/mL.
Regarding ActRIIB(F82I)-G1Fc (Fc fusion), the figures for the IC50, A204 CAGA12 reporter gene assay with activin A [10], with BMP9 [11] and in the test with GDF11 [12] were 0.011 µg/mL, 0.277 µg/mL and 0.009 µg/mL, respectively.
For ActRIIB(F82K)-G1Fc (Fc fusion), in that order: 0.01 µg/mL, 5 µg/mL and 0.015 µg/mL.
As to ActRIIB(F82T)-G1Fc (Fc fusion), the IC50, A204 CAGA12 reporter gene assay amounted to 0.07 nM with BMP10 [13]; 0.09 nM in the test with activin B [14]; 0.1 nM in the test with activin A [15]; 2.17 nM in the test with GDF8 [16]; 0.27 nM with GDF11 [17].
Turning to ActRIIB(K55A)-G1Fc (Fc fusion), the IC50, A204 CAGA12 reporter gene assay was determined as 0.015 µg/mL with activin A [10], 0.122 µg/mL in the test with BMP9 [11] and 0.011 µg/mL with GDF11 [12].
For ActRIIB(K55E)-G1Fc (Fc fusion), in that order: 0.019 µg/mL, 0.29 µg/mL and 0.014 µg/mL.
Consider “variant ActRIIB-Fc polypeptide A24N (Fc fusion)”, for which the results for the IC50, A204 CAGA12 reporter gene assay with activin A [7], in the test with BMP9 [8] and with GDF11 [9] were 0.128 µg/mL, 0.409 µg/mL and 0.099 µg/mL, respectively.
In the case of “variant ActRIIB-Fc polypeptide E50K (Fc fusion)”, the IC50, A204 CAGA12 reporter gene assay with activin A [7] worked out at 0.132 µg/mL; with BMP9 [8], 0.721 µg/mL; in the test with GDF11 [9] it was 0.18 µg/mL.
Consider “variant ActRIIB-Fc polypeptide E50P (Fc fusion)”, for which the IC50, A204 CAGA12 reporter gene assay in the test with activin A [7] was 0.756 µg/mL; in the test with BMP9 [8], 3 µg/mL; in the test with GDF11 [9] it was 0.638 µg/mL.
For “variant ActRIIB-Fc polypeptide E52A (Fc fusion)”, in that order: 0.198 µg/mL, 0.359 µg/mL and 0.071 µg/mL.
On the same counts, the results for “variant ActRIIB-Fc polypeptide E52K (Fc fusion)” are 0.762 µg/mL, 10 µg/mL and 0.296 µg/mL.
Consider “variant ActRIIB-Fc polypeptide F82W (Fc fusion)”, for which the IC50, A204 CAGA12 reporter gene assay with GDF11 [9] worked out at 0.276 µg/mL.
In the case of “variant ActRIIB-Fc polypeptide F82W/N83A (Fc fusion)”, the values for the IC50, A204 CAGA12 reporter gene assay with BMP9 [8] and in the test with GDF11 [9] were 40 µg/mL and 0.389 µg/mL, respectively.
Regarding “variant ActRIIB-Fc polypeptide K55D (Fc fusion)”, the IC50, A204 CAGA12 reporter gene assay turned out to be 0.396 µg/mL in the test with activin A [7], 5.5 µg/mL with BMP9 [8] and 0.365 µg/mL with GDF11 [9].
On the same counts, the results for “variant ActRIIB-Fc polypeptide K55R (Fc fusion)” are 0.206 µg/mL, 0.777 µg/mL and 0.318 µg/mL.
As for “variant ActRIIB-Fc polypeptide K74R (Fc fusion)”, the IC50, A204 CAGA12 reporter gene assay in the test with BMP9 [8] was determined as 0.165 µg/mL; in the test with GDF11 [9] it was 0.045 µg/mL.
Consider “variant ActRIIB-Fc polypeptide L79K (Fc fusion)”, for which the IC50, A204 CAGA12 reporter gene assay with GDF11 [9] was 0.477 µg/mL.
With “variant ActRIIB-Fc polypeptide L79R (Fc fusion)”, the IC50, A204 CAGA12 reporter gene assay with GDF11 [9] was 0.234 µg/mL.
Regarding “variant ActRIIB-Fc polypeptide R40A (Fc fusion)”, the IC50, A204 CAGA12 reporter gene assay in the test with BMP9 [8] came to 1.21 µg/mL; with GDF11 [9] it was 0.591 µg/mL.
Take “variant ActRIIB-Fc polypeptide Y60K (Fc fusion)”: the IC50, A204 CAGA12 reporter gene assay with GDF11 [9] was 0.414 µg/mL.
Still for that read-out and setting: for “variant ActRIIB-Fc polypeptide Y60P (Fc fusion)” the value was 0.544 µg/mL.
